From US20230201322A1 (ENTEROME S A, published 2023)

What was measured:
[1] = target: T1, HLA-A*0201 molecule expressed on the human tumoral cell T2 (human); test: T2 cell HLA-A2 FACS (BB7.2-PE); ratio of 20% concentrations against HIV pol 589-597
T1 construct: Empty or peptide-receptive class I molecule on T2 cells; surface level read with anti-HLA-A2 antibody BB7.2-PE after incubation with the peptide; also called HLA-A2
Procedure: (§1) T2 cells (2·10⁵ cells per well) are incubated with decreasing concentrations of peptides from 100 μM to 0.1 μM in a AIMV medium supplemented with 100 ng/μl of human β2m at 37° C. for 16 hours. Cells are then washed two times and marked with the anti-HLA-A2 antibody coupled to PE (clone BB7.2, BD Pharmagen).
(§2) The relative affinity is then determined as follows: […]

[2] = target: T1, HLA-A*0201 molecule expressed on the …; test: T2 cell HLA-A2 FACS (BB7.2-PE), peptide 10 µM
Procedure: as §1, §2

[3] = target: T1, HLA-A*0201 molecule expressed on the …; test: T2 cell HLA-A2 FACS (BB7.2-PE), peptide 0.1 µM
Procedure: as §1, §2

[4] = target: T1, HLA-A*0201 molecule expressed on the …; test: T2 cell HLA-A2 FACS (BB7.2-PE), peptide 100 µM
Procedure: as §1, §2

[5] = target: T1, HLA-A*0201 molecule expressed on the …; test: T2 cell HLA-A2 FACS (BB7.2-PE), peptide titration
Procedure: as §1, §2

[6] = target: T1, HLA-A*0201 molecule expressed on the …; test: T2 cell HLA-A2 FACS (BB7.2-PE), peptide 1 µM
Procedure: as §1, §2

Row | Binder | Relative affinity [1] | HLA-A2 labelling as % of reference peptide HIV pol 589-597 at 100 µM [2] [%] | HLA-A2 labelling as % of reference peptide HIV pol 589-597 at 100 µM [3] [%] | HLA-A2 labelling as % of reference peptide HIV pol 589-597 at 100 µM [4] [%] | Conc. inducing 20% of HLA-A2 expression [5] [µM] | HLA-A2 labelling as % of reference peptide HIV pol 589-597 at 100 µM [6] [%]
1 | ITSDVPFSV [antigenic peptide PMEL-B (ITSDVPFSV)] | 0.59 | 7.93 | 4.69 | 74.8 | 18.2 | 3.62
2 | MLAVFLPLV [antigenic peptide STEAP-B1 (MLAVFLPLV)] | 0.16 | 45.1 | 6.67 | 132 | 5 | 8.92
3 | YLAVFLPIV [antigenic peptide STEAP-B2 (YLAVFLPIV)] | 0.27 | 27.7 | -0.34 | 97.9 | 8.22 | 4.87
4 | MIAVFLPIV [reference human peptide derived from STEAP, STEAP-H (MIAVFLPIV)] | 1.08 | 14.9 | 0.11 | 102 | 33.5 | -4.47
5 | RLLEETDLV [antigenic peptide ERBB2-1B (RLLEETDLV)] | 0.26 | 26.4 | -1.18 | 297 | 9.5 | 2.86
6 | VMLGVVFGV [antigenic peptide ERBB2-3B1 (VMLGVVFGV)] | 0.25 | 26.7 | -16 | 122 | 9 | -12.9
7 | VMLGVVFGI [antigenic peptide ERBB2-3B3 (VMLGVVFGI)] | 0.35 | 16.6 | -16.3 | 179 | 12.5 | -10.6
8 | ILLGVVFGI [antigenic peptide ERBB2-3B4 (ILLGVVFGI)] | 0.03 | 138 | -11.6 | 265 | 0.9 | 26.1
9 | KLVEWLAML [antigenic peptide MAGE C1B (KLVEWLAML)] | 0.31 | 21.4 | 2.45 | 109 | 30.9 | 3.97
10 | KVVEFLAML [reference human peptide derived from MAGE C1, MAGE C1H (KVVEFLAML)] | 1.94 | 7.84 | 5.77 | 32.3 | 60.1 | 7.12
11 | SLPPDVQQV [antigenic peptide MMP2-B (SLPPDVQQV)] | 0.03 | 96 | 4.69 | 131 | 0.88 | 24.6
12 | GLPPDVQRV [reference human peptide derived from MMP2, MMP2-H (GLPPDVQRV)] | 0.06 | 66.3 | 5.41 | 154 | 1.76 | 17.8
